Data from paper PMC10797482, “The Interaction between Collagen 1 and High Mannose Type CD133 Up‐Regulates Glutamine Transporter SLC1A5 to Promote the Tumorigenesis of Glioblastoma Stem Cells” (Advanced Science, 2023).

B1: GST-CD133(20-108) (domain or fragment, human, UniProt O43490 20-108, looked up)
chain: GGQPSSTDAPKAWNYELPATNYETQDSHKAGPIGILFELVHIFLYVVQPRDFPEDTLRKFLQKAYESKIDYDKPETVILGLKIVYYEAG
notes: source: E. coli BL21(DE3), purified (Glutathione-Superflow Resin)
B2: GST-CD133 N-terminal segment (amino acids 43–81) (domain or fragment, human, UniProt O43490 43-81, looked up)
chain: TQDSHKAGPIGILFELVHIFLYVVQPRDFPEDTLRKFLQ
notes: source: E. coli BL21, purified (Glutathione-Superflow Resin)

Target: T1, His-COL1A1(972-1206) (human, UniProt P02452 972-1206)
T1 construct: also called COL1 (in the in vitro pull-downs); source: HEK293F, transfected (PEI), purified from the supernatants (Nickel Beads)
T1 sequence (P02452 972-1206): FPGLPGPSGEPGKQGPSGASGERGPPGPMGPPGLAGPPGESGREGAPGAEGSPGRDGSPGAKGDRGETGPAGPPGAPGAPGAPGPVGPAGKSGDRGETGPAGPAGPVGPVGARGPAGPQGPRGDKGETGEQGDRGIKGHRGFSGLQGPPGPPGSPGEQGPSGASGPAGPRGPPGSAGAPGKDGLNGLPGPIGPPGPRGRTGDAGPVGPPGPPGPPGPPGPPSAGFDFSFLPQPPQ
Assay: pull-down; GST pull-down: 10 µg purified GST fusion protein with GST-beads incubated with His-COL1A1(972-1206) protein 1 h at 4 °C; washed three times with RIPA (1% Triton X-100, 50 mM Tris pH 7.4, 150 mM NaCl, 2 mM EDTA); blot with anti-His antibody
Settings: both partners purified

Row | Binder | binding result
1 | B1 | binds
2 | B2 | binds
